Data reported in the nanobody polyreactivity screen of Harvey et al. (2022).

Assay: yeast display, Sf9 membrane polyspecificity reagent, FACS + sequencing; frameworks hold sequencing errors
Procedure, shortened: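 Galactose-induced (36–48 hours) yeast carrying a synthetic nanobody display library were exposed to 10% biotinylated, detergent-solubilized Sf9 membrane reagent at 4 °C for 1 hour. FACS followed streptavidin microbead enrichment, using low and high (top ~1%) gates for expression (anti-HA) and reagent binding (streptavidin). Colony PCR, MiSeq 2 × 250 sequencing and CDR-length filtering followed. Labels for polyreactivity reflect the gate of origin.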

| Sequence | polyreactivity (PSR sort gate) |
| --- | --- |
| QVQLVESGGGLDQAGGSLRLSCADSGSTFGLYAMGWYRQAPGKETELVAVISWRGGSTYYADSVKGRFTISRDNAKITVYFQMNSLKPEDTAVYYCAAYCLYPYVRYDYWGLGTQVTVSS | low polyreactivity |
| QVQLVESGGGLDQAGGSLRLSSAASGSIVDSNAMGWYRQAPGKASEMVASITSSGGSTYYADSVKGRFTISRDNAKNTVYLQMNSVKPEDTAVYYCAPKQAQSRYRLWSTSGYWGQGTQVTVSS | high polyreactivity |
| QVQLVESGGGLDQAGGSLRLSSAAYGRIFRRYAMGWYRQSHGKERELVAAITSGGGSTYYADSVKGRFTISRDNAKNTVYLQMNSLKPEETAVYYCNKSSLEFVKGKYGYWGQGTQVTVSS | low polyreactivity |
| QVQLVESGGGLDQAGGSLRLTCAASGFNFSYYVMGWYRQAPGKERELVAAITKSGGSTYYADSVKGRFTIARDNAKNTVYLQMYSLKPEDTAVYFLAAVRGYRCYDYWGQGTQVTVSS | high polyreactivity |
| QVQLVESGGGLDQAGGSLRLTCAASGGTFVSNAMRWSRQAPGKERELVAAISSSTGSTYYADSVKGRFTISRDNAKKTVYLQMISLKPEDTAVYYCAADSWWDYDSWGQGPQVTVSS | low polyreactivity |
| QVQLVESGGGLDQAGGSLRLTCAASGITFTQYAMGWYRQAPGKEREFVAGITFSGSSTYYADSVKGRFTISRDNAKNTVYLQMNSLKPEDTAVYYCAAESWYKYIYGYPRLFDYWGQATQVTVSS | low polyreactivity |
| QVQLVESGGGLDQARGSLRLSCAASGLTFHRYAMGWYRQANGKERELVAAINYSGGRTYYADSVKGRFTISRDNAKNTVYLQMNSLKPEDTAVYYCNAVRYQKIFDYWGQGTQVTVSS | high polyreactivity |
| QVQLVESGGGLDQARGSLRLSCAASGRTFVLNAMGWYRQAPGKERELVAAITLGGGSTYADSVKGRFTISRANAKNTVYLQMNSLKPEDTAVYYCAADFHYPYFEYWGQGTQVTVSS | low polyreactivity |
| QVQLVESGGGLDQEGGSLRLSCAASGRIFARNAMGWYRQAPGKERELVAAIRNSDGSTYYADSVKGRFTISRDNAKNTVYLQMNSLKPEDTAVYYCAARSGSYRKYGYWGQGTQVTLSS | high polyreactivity |
| QVQLVESGGGLDQPGGSLRLSCAASGRIFRTYAMGWYRQAPGKQRELVAAINSVHRTYYADSVKGRFTITRDNAKNTVNLQMYCQKPEDSAVYYCNARYVLKVSQYGYWGQGTQVTVSS | high polyreactivity |
| QVQLVESGGGLDQSGGSLSLSCAASGSNFRLNAMGWSRQAPGKETELVAAISYRGGSTNYADSVKGRFTISRDNAKNTVYLQMNILKPEDTAVYYCAANIYRSSGQCMDYWGQGTEVTVSS | low polyreactivity |
| QVQLVESGGGLEQAGGSLRISCAASGITFRWYAMGWYRQAPGKERELVAAISERGGSTYYADSVKGRFTISRDNAKNTVYLQMNSLKPEDTAVYYCAADSQHWQRWHGYWGQGTEVTVSS | high polyreactivity |
| QVQLVESGGGLEQAGGSLRLSCAASGGTFARYVMGWYRQAPGKERELVAAITSGGRTYYADSVKGRFTISRDNAKNTVYLQMNSLKPEDTAVYYCATAPRRRATSYYYWGQGTQVTVSS | high polyreactivity |
| QVQLVESGGGLFQAGGILRLSCAASGFTFERNDMGWYRQAPGKERELVATISQSGTNTYYADSVKGRFTISRDNAKNTVYVQMNSMKPEDTAVYYCNARYIFYRYDYWGHGTQVTVSS | low polyreactivity |
| QVQLVESGGGLFQAGGRLRLSCASSGYTFDYYTMAWYRQAPGKERELVARITASGGSTYYADSVKGRFTISRDNAKNTVYLQMNSLKPEDTAVYYCAADYWWYTGYDYWGQGTQVTVSS | high polyreactivity |
| QVQLVESGGGLFQAGGSLRISCAASGFIFSFYAMGWYRQAPGKERELVAAITSSGATTYYADSVKGSFTISRDNAKNTVYLQMNSLKPEDTAVYYCNAVYRRDTGYYRYYYWGQGTQVTVSS | high polyreactivity |
| QVQLVESGGGLFQAGGSLRISCAASGSIFRSYAMGWYRQAPGKERELVASISRRGGSTYYADSVKGRFTISRDNAKNTVYLQMNSLKPEDTAVYYCAAVRYNSRVSTTPSEMYYWGQGTQVTVSS | low polyreactivity |
| QVQLVESGGGLFQAGGSLRISCAASGSTFRGYVMGWYRQAPGKERELVAAISRSGTSTYYADSVKGRFTISRDNAKNTVYLQMNSLKPEDTAVYYCAAQLYGHGEDYWGQGTQVTVSS | high polyreactivity |
| QVQLVESGGGLFQAGGSLRLICAASGNIFKSYTMGWYRQAPGKERELVAAITSGGRTNYADSVKGRFTISRDNAKNTVYLQMNSLKPEDTAVYYCNAYKVFWVSIRYKFDYWGQGTQVTVSS | high polyreactivity |
| QVQLVESGGGLFQAGGSLRLICAASGSTFLNNAMGWYRQAPGKERELVAAISYRGGSTYYADSVKGRFTISRDNAKNTVYLQMNSLKPEDTAVYYCAAEVTRFWWRSPYDYNYWGQGTQVTVSS | high polyreactivity |
| QVQLVESGGGLFQAGGSLRLSCAASATTFGVNAMGLYRQATGKERELVAAITVSAGSTYYADSVKGRFTISRDNAQNTVYLQMNSMKPEDSAVYYCAAEEREWRTDIYDYWGQGTQVTVSS | low polyreactivity |
| QVQLVESGGGLFQAGGSLRLSCAASGFIFAWYAMGWSRQAPGKERELVATISSSGARTYYADSVKGRFTISRDNAKNTVYLQLNRLKPEDTAVYYCASVYSTLGVGYYYWGQGTQVTVSS | high polyreactivity |

| Sequence | polyreactivity (PSR sort gate) |
| --- | --- |
| QVQLVESGGGLFQAGGSLRLSCAASGFIFRPYGMGWYRQAPGKERELVAAISWSGDRTYYADSVKGRFTISRDNAKNTVYLQMNSLKPEDTAVYYCAADGVTRDYDYWGQGNQVTVSS | low polyreactivity |
| QVQLVESGGGLFQAGGSLRLSCAASGFIFYDNAIGWYRQAPGKERELVASISVSGGSTYYADSVKGRFTISRDKAKNTVYLHMNSLKAEDTAVYYCAASYRDGHIRHDYWGQGTQVTVSS | low polyreactivity |
| QVQLVESGGGLFQAGGSLRLSCAASGFISSGNTMAWYRQAPGKERELVAAISGSGGRTYYADSVKGRFTISRDNAKNTVYLQMNSLKPEDTAVYYCATPLQQLYGYWGQGTQVTVSS | low polyreactivity |
| QVQLVESGGGLFQAGGSLRLSCAASGFIVRRYAMGWYRQAPGKEREMVAAITSGGGRTYYADSVKGRYTISRDNAKYTVNLEMISLKPEDTGVYDCARVQRCDYDYWGQGTQVTVSS | high polyreactivity |
| QVQLVESGGGLFQAGGSLRLSCAASGFTFPAYNMGWYRQAPRKEMEMVAAITSSGGNTYYADSVKGRFTISRHNAKNTVYLQMNSLKPEDTAVYYWATFSVRWPSNDHVRYDYWGHGTQVTVSS | low polyreactivity |
| QVQLVESGGGLFQAGGSLRLSCAASGIIFVRNAMGWSRQAPGKERELVAAITPSGGSTYYADSVKGRFTISRDNAKNTVYLQMNSLKPEDTAVYYCAAPYRYRSLYDNWGQGSQVTVSS | high polyreactivity |
| QVQLVESGGGLFQAGGSLRLSCAASGITFAQYAMGWYRQAPGKDRELVAVISSGGSTNYADSVKGRFTISRDNAKNTVYLQMNSMKPEDTAVYYCNADEAAPVYSYYYWGQGTQVTVSS | low polyreactivity |
| QVQLVESGGGLFQAGGSLRLSCAASGITFTRYAMGWYRQAPGKEREFVAAIRRSGGNTYYADSVKGRFTISRDNAKNTVYLQMNSLNPEDTAVYYCAASLRKTSPTRLVDYWGQGTQVTVSS | low polyreactivity |
| QVQLVESGGGLFQAGGSLRLSCAASGITLAYNAMGWYRQAPGKEREFVAAIDVSGGRTYYADSVKVRFTISRDKSKNTVNLQMNSLNPEDTAVYYCAADVAEFSVGYWQDYDYWGQGTQVTVSS | low polyreactivity |
| QVQLVESGGGLFQAGGSLRLSCAASGLTFYVYAMGWYRQAPGKERELVAAITQNGGTTYYADSVKGRFTISRDNAKNTVYLQMNSLKPEDTAVYYCAAGNRSLGGRLYRYYYWGQGTLVTVSS | high polyreactivity |
| QVQLVESGGGLFQAGGSLRLSCAASGNIFVDYDMGWYRQAPGKERELDATITGTGDSTTYADSVKGRFTISRDIAKNTVYLQMNSLKPEDTAVYYCNTDLRLVYRTKGFISWGYDYWGQGTQVTVSS | low polyreactivity |
| QVQLVESGGGLFQAGGSLRLSCAASGRIFSYNNMGWYRQAPGKERELVAAISTSGGSTYYADSVKGRFTLSRDNAKNTVYLQMNSLKPEDTAVYYCNTVWTFRTSTNYDYWGQVTQVTVSS | low polyreactivity |
| QVQLVESGGGLFQAGGSLRLSCAASGRIYPTYTMGWYRQAPGKERQLVAAINRGGGSTYYADSVKGRFTISRDYAKNTVYLQMICLKPEDTAVYYCNARTYYRSYGYDYWGQGTQVTVSS | low polyreactivity |
| QVQLVESGGGLFQAGGSLRLSCAASGRTFQVNAMAWYRHAPGKERELVAAISASDGSTYADSVKGRFTISRDNAKNTVYLQMNSLKPEDTAVYYCNKADYGGHRTSEQVGWVYLYDYWGQGTQVTVSS | low polyreactivity |
| QVQLVESGGGLFQAGGSLRLSCAASGRTFVKYDMGWYRHAPGKERELVAAISRRGGSTYYADSVKGRFTISRDNAKNTVYLQMNSLKPEDTAVYYCNAVHPKDVDSYRDRDYWGQGTQVTVSS | high polyreactivity |
| QVQLVESGGGLFQAGGSLRLSCAASGSIFTKYAMGWYRQAPGKERELVAAISQGGASTRYADSVKGRFTISRDNAKKTVYLQMNSLKPEDTAVYYCAAKSRHFWMDYWGQATQVTVSS | high polyreactivity |
| QVQLVESGGGLFQAGGSLRLSCAASGSIFWPNTMGWYRQAPGKERELVATISSGGDTSYADSVKGRFTISRDNEKNTVYLQMNSLKPEDTAVYYLAKSITVDDVHPRALTYNYWGQGTQVTVSS | low polyreactivity |
| QVQLVESGGGLFQAGGSLRLSCAASGSTFGWYGMGWYRHAPGKERELVAAISLSDGGTYYADSVKGRFTISRDNAKNTVYLQMNSLKPEDTAVYYCAADYYDSGWYGYWGQGTQVTVSS | high polyreactivity |
| QVQLVESGGGLFQAGGSLRLSCAASGSTFHYNNMGWYRQAPGKERELVAAISWLGDPTYYADSVKGRFTISRDNAKNTVYLQMNSLKPEDTSVYFCNAVRLSRYRPNPFGYGHWGQGTQVTVSS | high polyreactivity |
| QVQLVESGGGLFQAGGSLRLSCAASGSTFVKYAMGRSRPAPAKERELVAAINRSGASTYYADSVKGRFTISRDNATNTVNLQMISLKPEDTAVYYCAARFSWLGYYWGQGTQETVSS | high polyreactivity |
| QVQLVESGGGLFQAGGSLRLSCAASGSTLGSNAMGWYRQAPGKERELVAAITWSGGTTYYADSLKGRFTISRDNAKNTVYLQMNSLKPEDTAVYYCAPGQSVIYRYEFWGQGTQVTVSS | low polyreactivity |
